Target: human PD-1 expressed on cells (HuT78/PD-1, NK92MI/PD-1) (human, UniProt Q15116 25-288)
Assay: FACS binding (MFI)

Chain of human PD-1 expressed on cells (HuT78/PD-1, NK92MI/PD-1) (Q15116 25-288): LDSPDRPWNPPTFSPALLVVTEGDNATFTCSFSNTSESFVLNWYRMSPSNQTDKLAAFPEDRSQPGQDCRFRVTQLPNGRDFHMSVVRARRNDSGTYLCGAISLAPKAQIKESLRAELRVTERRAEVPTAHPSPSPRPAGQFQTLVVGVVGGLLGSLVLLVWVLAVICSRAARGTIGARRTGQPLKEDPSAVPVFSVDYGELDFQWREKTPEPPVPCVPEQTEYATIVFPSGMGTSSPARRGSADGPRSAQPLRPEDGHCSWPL

B1: murine mAb 317 (antibody, V domains shown)
VH: QVQLKESGPGLVAPSKNLSITCTVSGFSLTSYGVHWIRQPPGKGLEWLGVIWAGGSTNYNSALMSRLSISKDNSRSQVFLRMNSLQTDDTAMYYCARAYGNYWYIDVWGAGTTVTVSS
VL: DIVMTQTPKFLLVSAGDRVTITCKASQSVSNDVAWYQQKPGQSPKLLINYAFHRFTGVPDRFTGSGYGTDFIFTISTVQAEDLAVYFCHQAYSSPYTFGGGTKLEMK
EC50: 0.105 µg/mL

— patent US20230303689A1 (published 2023)
